Assays:
Assay in all cases: cell-based or functional assay
[1] = molecular target: HIV-1 Env of pseudovirus Q842.d12 (HIV-1)
[2] = molecular target: HIV-1 Env of pseudovirus 62357_14_03_4589 (HIV-1)
[3] = molecular target: HIV-1 envelope of pseudovirus 620345.c01 (HIV-1)
[4] = molecular target: HIV-1 envelope of pseudovirus Ce1086_B2 (HIV-1)
[5] = molecular target: HIV-1 envelope of pseudovirus CNE58 (HIV-1)
[6] = molecular target: HIV-1 envelope of pseudovirus Ce1176_A3 (HIV-1)
[7] = molecular target: HIV-1 envelope of pseudovirus 249M B10 (HIV-1)
[8] = molecular target: HIV-1 envelope spike of pseudovirus R1166.c1 (HIV-1)
[9] = molecular target: HIV-1 envelope of pseudovirus Ce0682_E4 (HIV-1)
[10] = molecular target: HIV-1 envelope of pseudovirus 246F C1G (HIV-1)
[11] = molecular target: HIV-1 Env of pseudovirus T278-50 (HIV-1)
[12] = molecular target: HIV-1 envelope of pseudovirus ZM214M.PL15 (HIV-1)
[13] = molecular target: HIV-1 Env of pseudovirus 0260.v5.c36 (HIV-1)
[14] = molecular target: HIV-1 Env of pseudovirus 89-F1_2_25 (HIV-1)
[15] = molecular target: HIV-1 envelope of pseudovirus C3347.c11 (HIV-1)
[16] = molecular target: HIV-1 Env of pseudovirus 7030102001E5(Rev-) (HIV-1)
[17] = molecular target: HIV-1 Env of pseudovirus 6545.v4.c1 (HIV-1)
[18] = molecular target: HIV-1 envelope of pseudovirus QH0692.42 (HIV-1)
[19] = molecular target: HIV-1 Env of pseudovirus CNE52 (HIV-1)
[20] = molecular target: HIV-1 envelope of pseudovirus HIV-001428-2.42 (HIV-1)
[21] = molecular target: HIV-1 Env of pseudovirus 6811.v7.c18 (HIV-1)
[22] = molecular target: HIV-1 Env of pseudovirus WEAU_d15_410_787 (HIV-1)
[23] = molecular target: HIV-1 envelope spike of pseudovirus TRJO4551.58 (HIV-1)
[24] = molecular target: HIV-1 envelope of pseudovirus Du172.17 (HIV-1)
[25] = molecular target: HIV-1 envelope of pseudovirus Ce704809221_1B3 (HIV-1)
[26] = molecular target: HIV-1 envelope of pseudovirus HIV-16055-2.3 (HIV-1)
[27] = molecular target: HIV-1 Env of pseudovirus HIV-16055-2.3 (HIV-1)
[28] = molecular target: HIV-1 envelope of pseudovirus MS208.A1 (HIV-1)
[29] = molecular target: HIV-1 envelope spike of pseudovirus YU-2 (HIV-1) (UniProt P35961)
[30] = molecular target: HIV-1 envelope of pseudovirus TRJO4551.58 (HIV-1)
[31] = molecular target: HIV-1 Env of pseudovirus AC10.0.29 (HIV-1)
[32] = molecular target: HIV-1 envelope of pseudovirus YU-2 (HIV-1)
[33] = molecular target: HIV-1 Env of pseudovirus 620345.c01 (HIV-1)
[34] = molecular target: HIV-1 envelope of pseudovirus ZM247v1(Rev-) (HIV-1)
[35] = molecular target: HIV-1 envelope of pseudovirus 3365.v2.c2 (HIV-1)
[36] = molecular target: HIV-1 Env of pseudovirus ZM135M.PL10a (HIV-1)
[37] = molecular target: HIV-1 Env of pseudovirus RHPA4259.7 (HIV-1)
[38] = molecular target: HIV-1 envelope of pseudovirus CNE17 (HIV-1)
[39] = molecular target: HIV-1 Env of pseudovirus ZM249M.PL1 (HIV-1)
[40] = molecular target: HIV-1 Env of pseudovirus Ce704809221_1B3 (HIV-1)
[41] = molecular target: HIV-1 envelope of pseudovirus Q451.e2 (HIV-1)
[42] = molecular target: HIV-1 envelope of pseudovirus R1166.c01 (HIV-1)
[43] = molecular target: HIV-1 envelope spike of pseudovirus CAAN5342.A2 (HIV-1)
[44] = molecular target: HIV-1 Env of pseudovirus T251-18 (HIV-1)
[45] = molecular target: HIV-1 envelope of pseudovirus 6244_13_85_4576 (HIV-1)
[46] = molecular target: HIV-1 envelope of pseudovirus 6540.v4.c1 (HIV-1)
[47] = molecular target: HIV-1 Env of pseudovirus TRJO4551.58 (HIV-1)
[48] = molecular target: HIV-1 Env of pseudovirus 1394C9G1(Rev-) (HIV-1)
[49] = molecular target: HIV-1 Env of pseudovirus Ce2060_G9 (HIV-1)

10-1074 (antibody), sequence (VH): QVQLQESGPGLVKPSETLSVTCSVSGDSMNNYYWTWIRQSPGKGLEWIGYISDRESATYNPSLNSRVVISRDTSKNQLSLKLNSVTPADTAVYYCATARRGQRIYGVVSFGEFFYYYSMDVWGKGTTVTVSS
10-1074 (antibody), sequence (V domain): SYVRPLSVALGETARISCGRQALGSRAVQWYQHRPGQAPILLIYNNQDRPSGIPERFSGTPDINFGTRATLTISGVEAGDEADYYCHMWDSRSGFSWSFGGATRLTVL
HIV-1 envelope spike of pseudovirus YU-2 (HIV-1), sequence (P35961 32-843): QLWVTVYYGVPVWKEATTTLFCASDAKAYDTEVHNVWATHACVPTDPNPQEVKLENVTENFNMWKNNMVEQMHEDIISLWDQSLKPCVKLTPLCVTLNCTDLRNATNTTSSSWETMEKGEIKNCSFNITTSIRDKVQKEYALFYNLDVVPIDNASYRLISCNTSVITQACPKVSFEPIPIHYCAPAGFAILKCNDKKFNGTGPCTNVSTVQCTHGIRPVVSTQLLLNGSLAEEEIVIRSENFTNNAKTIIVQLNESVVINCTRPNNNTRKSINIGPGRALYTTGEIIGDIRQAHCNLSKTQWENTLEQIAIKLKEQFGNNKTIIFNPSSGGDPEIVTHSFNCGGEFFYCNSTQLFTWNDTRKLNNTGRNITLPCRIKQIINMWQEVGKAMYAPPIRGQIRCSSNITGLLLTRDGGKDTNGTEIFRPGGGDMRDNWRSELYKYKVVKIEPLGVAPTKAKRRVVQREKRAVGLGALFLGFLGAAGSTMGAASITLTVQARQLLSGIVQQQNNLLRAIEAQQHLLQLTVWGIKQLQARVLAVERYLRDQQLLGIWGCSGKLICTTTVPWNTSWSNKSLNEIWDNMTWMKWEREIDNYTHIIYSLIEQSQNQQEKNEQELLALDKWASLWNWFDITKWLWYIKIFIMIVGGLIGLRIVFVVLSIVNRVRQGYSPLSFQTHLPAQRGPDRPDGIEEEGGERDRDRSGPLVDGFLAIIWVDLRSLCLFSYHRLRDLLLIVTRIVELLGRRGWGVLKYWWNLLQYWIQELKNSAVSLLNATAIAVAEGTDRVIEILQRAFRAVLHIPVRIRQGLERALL

Question: 10-1074 (antibody) was tested. Which IC80 (TZM-bl neutralization) [1] did it give?
Answer: > 50 µg/mL

Question: And the IC80 (TZM-bl neutralization) [2]?
Answer: > 50 µg/mL

Question: And the IC50 (TZM-bl neutralization) [3]?
Answer: > 50 µg/mL

Question: What about the IC50 (TZM-bl neutralization) [4] of the same substance?
Answer: > 50 µg/mL

Question: And the IC50 (TZM-bl neutralization) [5]?
Answer: 0.267 µg/mL

Question: And the IC50 (TZM-bl neutralization) [6]?
Answer: 0.018 µg/mL

Question: What about the IC50 (TZM-bl neutralization) [7] of the same substance?
Answer: > 50 µg/mL

Question: And the IC50 (TZM-bl neutralization assay) [8]?
Answer: > 40 µg/mL

Question: And the IC80 (TZM-bl neutralization assay) [8]?
Answer: > 40 µg/mL

Question: What about the IC50 (TZM-bl neutralization) [9] of the same substance?
Answer: > 50 µg/mL

Question: What about the IC50 (TZM-bl neutralization) [10] of the same substance?
Answer: 0.022 µg/mL

Question: And the IC80 (TZM-bl neutralization) [11]?
Answer: 18.3 µg/mL

Question: And the IC50 (TZM-bl neutralization) [12]?
Answer: 0.174 µg/mL

Question: And the IC80 (TZM-bl neutralization) [13]?
Answer: 0.16 µg/mL

Question: What about the IC80 (TZM-bl neutralization) [14] of the same substance?
Answer: > 50 µg/mL

Question: And the IC50 (TZM-bl neutralization) [15]?
Answer: > 50 µg/mL

Question: And the IC80 (TZM-bl neutralization) [16]?
Answer: 0.021 µg/mL

Question: What about the IC80 (TZM-bl neutralization) [17] of the same substance?
Answer: > 50 µg/mL

Question: What about the IC50 (TZM-bl neutralization) [18] of the same substance?
Answer: 0.191 µg/mL

Question: And the IC80 (TZM-bl neutralization) [19]?
Answer: 13.1 µg/mL

Question: And the IC50 (TZM-bl neutralization) [20]?
Answer: 0.044 µg/mL

Question: And the IC80 (TZM-bl neutralization) [21]?
Answer: 0.01 µg/mL

Question: And the IC80 (TZM-bl neutralization) [22]?
Answer: 0.375 µg/mL

Question: What about the IC50 (TZM-bl neutralization assay) [23] of the same substance?
Answer: 0.17 µg/mL

Question: And the IC80 (TZM-bl neutralization assay) [23]?
Answer: 0.693 µg/mL

Question: And the IC50 (TZM-bl neutralization) [24]?
Answer: 0.121 µg/mL

Question: And the IC50 (TZM-bl neutralization) [25]?
Answer: 0.139 µg/mL

Question: What about the IC50 (TZM-bl neutralization) [26] of the same substance?
Answer: > 50 µg/mL

Question: What about the IC80 (TZM-bl neutralization) [27] of the same substance?
Answer: > 50 µg/mL

Question: What about the IC50 (TZM-bl neutralization) [28] of the same substance?
Answer: > 50 µg/mL

Question: And the IC50 (TZM-bl neutralization assay) [29]?
Answer: 0.143 µg/mL

Question: And the IC80 (TZM-bl neutralization assay) [29]?
Answer: 0.398 µg/mL

Question: And the IC50 (TZM-bl neutralization) [30]?
Answer: 0.17 µg/mL

Question: What about the IC80 (TZM-bl neutralization) [31] of the same substance?
Answer: 0.11 µg/mL

Question: What about the IC50 (TZM-bl neutralization) [32] of the same substance?
Answer: 0.143 µg/mL

Question: And the IC80 (TZM-bl neutralization) [33]?
Answer: > 50 µg/mL

Question: And the IC50 (TZM-bl neutralization) [34]?
Answer: 0.042 µg/mL

Question: What about the IC50 (TZM-bl neutralization) [35] of the same substance?
Answer: 0.131 µg/mL

Question: And the IC80 (TZM-bl neutralization) [36]?
Answer: 0.367 µg/mL

Question: What about the IC80 (TZM-bl neutralization) [37] of the same substance?
Answer: 0.118 µg/mL

Question: And the IC50 (TZM-bl neutralization) [38]?
Answer: 2.69 µg/mL

Question: What about the IC80 (TZM-bl neutralization) [39] of the same substance?
Answer: > 50 µg/mL

Question: What about the IC80 (TZM-bl neutralization) [40] of the same substance?
Answer: 0.696 µg/mL

Question: What about the IC50 (TZM-bl neutralization) [41] of the same substance?
Answer: > 50 µg/mL

Question: And the IC50 (TZM-bl neutralization) [42]?
Answer: > 50 µg/mL

Question: What about the IC50 (TZM-bl neutralization assay) [43] of the same substance?
Answer: 0.007 µg/mL

Question: And the IC80 (TZM-bl neutralization assay) [43]?
Answer: 0.044 µg/mL

Question: What about the IC80 (TZM-bl neutralization) [44] of the same substance?
Answer: 7.39 µg/mL

Question: What about the IC50 (TZM-bl neutralization) [45] of the same substance?
Answer: 0.202 µg/mL

Question: And the IC50 (TZM-bl neutralization) [46]?
Answer: > 50 µg/mL

Question: What about the IC80 (TZM-bl neutralization) [47] of the same substance?
Answer: 0.634 µg/mL

Question: And the IC80 (TZM-bl neutralization) [48]?
Answer: 0.191 µg/mL

Question: What about the IC80 (TZM-bl neutralization) [49] of the same substance?
Answer: > 50 µg/mL

— US12338277
